Usually Kd stands for the concentration at which binding is half-saturated. Low readings indicate a tighter complex, high ones a looser complex. The term koff denotes the first-order rate constant of dissociation. A high value points to a short-lived complex. Usually kon stands for the rate constant with which the complex forms. A low value points to slow association.

One assay deals with cyno ST2L (cyno). The assay is described as follows: affinity table; method not stated.
A further assay addresses T1, human ST2L (human, UniProt Q01638 19-328, limits assumed).
T1 construct: also called IL-1R4; IL-33Ra
T1 sequence (looked up): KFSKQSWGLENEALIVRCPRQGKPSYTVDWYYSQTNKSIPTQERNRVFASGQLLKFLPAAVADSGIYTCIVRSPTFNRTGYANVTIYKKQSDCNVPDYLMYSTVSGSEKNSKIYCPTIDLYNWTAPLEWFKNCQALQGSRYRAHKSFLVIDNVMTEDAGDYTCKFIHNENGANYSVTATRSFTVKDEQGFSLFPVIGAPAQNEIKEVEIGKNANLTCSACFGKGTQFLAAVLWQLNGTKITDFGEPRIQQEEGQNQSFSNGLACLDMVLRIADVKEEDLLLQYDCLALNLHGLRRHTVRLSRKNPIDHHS
The assay is described as follows: affinity table; method not stated.

B1: STLM215 (antibody, from another filing, V domains shown)
VH: EVQLLESGGGLVQPGGSLRLSCAASGFTFSSYDMFWVRQAPGKGLEWVSAIAGEGGRTYYADSVKGRFTISRDNSKNTLYLQMNSLRAEDTAVYYCARDPWSTEGSFFVLDYWGQGTLVTVSS
VL: EIVLTQSPATLSLSPGERATLSCRASQSVDDDLAWYQQKPGQAPRLLIYDASNRATGIPARFSGSGSGTDFTLTISSLEPEDFAVYYCQQYIGAPITFGQGTKVEIK
As for B1, in the assay with cyno ST2L (cyno), the Kd came out at 0.01 nM, the koff worked out at 0.000369 s⁻¹ and the kon was determined as 3.54e+07 M⁻¹ s⁻¹. In the assay with human ST2L, this molecule returned a Kd of 0.025 nM, a koff of 0.000172 s⁻¹ and a kon of 6.91e+06 M⁻¹ s⁻¹.

B2: STLM216 (antibody, from another filing, V domains shown)
VH: EVQLLESGGGLVQPGGSLRLSCAASGFTFSSYDMFWVRQAPGKGLEWVSDIKGEGGATNYADSVKGRFTISRDNSKNTLYLQMNSLRAEDTAVYYCARDPWSTEGSFFVLDYWGQGTLVTVSS
VL: EIVLTQSPATLSLSPGERATLSCRASQSVDDDLAWYQQKPGQAPRLLIYDASNRATGIPARFSGSGSGTDFTLTISSLEPEDFAVYYCQQYIGAPITFGQGTKVEIK
For the molecule B2, in the assay with cyno ST2L (cyno), the Kd turned out to be 0.003 nM, the koff worked out at 0.000264 s⁻¹ and the kon came out at 7.89e+07 M⁻¹ s⁻¹. In the assay with human ST2L, this molecule showed a Kd of 0.016 nM, a koff of 0.000158 s⁻¹ and a kon of 9.63e+06 M⁻¹ s⁻¹.

The values are drawn from US20190202907A1 (180 THERAPEUTICS, published 2019).
